Data from the Human Domainome abundance scans (Beltran et al. 2025).
± gives the uncertainty stated by the source.

B1: TGF-beta-activated kinase 1 and MAP3K7-binding protein 3, residues 12 to 50; numbered along this chain, Q8N5C8 (parent)
chain: VLHDLRQRFPEIPEGVVSQCMLQNNNNLEACCRALSQES

Variants of: B1
Experiment: abundance fitness (aPCA) (normalised: wild type 0, dead -1); higher = more abundant; growth selection in yeast, the domain comes from the species named
Conditions: Homo sapiens

In order of rising abundance fitness:
1. VLHDLRWRFPEIPEGVVSQCMLQNNNNLEACCRALSQES  -1.08 ± 0.16
2. VLHDLRQPFPEIPEGVVSQCMLQNNNNLEACCRALSQES  -1.08 ± 0.24
3. VLHDLRPRFPEIPEGVVSQCMLQNNNNLEACCRALSQES  -1.02 ± 0.17
4. VLHDLRQCFPEIPEGVVSQCMLQNNNNLEACCRALSQES  -0.987 ± 0.19
5. VLHDLRQWFPEIPEGVVSQCMLQNNNNLEACCRALSQES  -0.975 ± 0.14
6. VLHDLRQRWPEIPEGVVSQCMLQNNNNLEACCRALSQES  -0.964 ± 0.16
7. VLHDLRQGFPEIPEGVVSQCMLQNNNNLEACCRALSQES  -0.944 ± 0.065
8. VLHDLRQRLPEIPEGVVSQCMLQNNNNLEACCRALSQES  -0.935 ± 0.093
9. VLHDSRQRFPEIPEGVVSQCMLQNNNNLEACCRALSQES  -0.914 ± 0.18
10. VLHDLPQRFPEIPEGVVSQCMLQNNNNLEACCRALSQES  -0.91 ± 0.21
11. VLHDLRQHFPEIPEGVVSQCMLQNNNNLEACCRALSQES  -0.907 ± 0.4
12. VLHDVRQRFPEIPEGVVSQCMLQNNNNLEACCRALSQES  -0.896 ± 0.097
13. VLHDWRQRFPEIPEGVVSQCMLQNNNNLEACCRALSQES  -0.885 ± 0.14
14. VLHDLRQTFPEIPEGVVSQCMLQNNNNLEACCRALSQES  -0.877 ± 0.21
15. VLHDLRQRVPEIPEGVVSQCMLQNNNNLEACCRALSQES  -0.865 ± 0.087
16. VLHDLRQRGPEIPEGVVSQCMLQNNNNLEACCRALSQES  -0.818 ± 0.061
17. VLHDLWQRFPEIPEGVVSQCMLQNNNNLEACCRALSQES  -0.809 ± 0.14
18. VLHDLRQRTPEIPEGVVSQCMLQNNNNLEACCRALSQES  -0.798 ± 0.15
19. VLHDLRQRIPEIPEGVVSQCMLQNNNNLEACCRALSQES  -0.784 ± 0.33
20. VLHDLRQRRPEIPEGVVSQCMLQNNNNLEACCRALSQES  -0.751 ± 0.057
21. VLHDLRQQFPEIPEGVVSQCMLQNNNNLEACCRALSQES  -0.73 ± 0.29
22. VLHDLRQDFPEIPEGVVSQCMLQNNNNLEACCRALSQES  -0.722 ± 0.27
23. VLHDRRQRFPEIPEGVVSQCMLQNNNNLEACCRALSQES  -0.722 ± 0.064
24. VLHDLRQREPEIPEGVVSQCMLQNNNNLEACCRALSQES  -0.682 ± 0.057
25. VLHDLRCRFPEIPEGVVSQCMLQNNNNLEACCRALSQES  -0.658 ± 0.14
26. VLHDLRQRCPEIPEGVVSQCMLQNNNNLEACCRALSQES  -0.65 ± 0.067
27. VLHDLRFRFPEIPEGVVSQCMLQNNNNLEACCRALSQES  -0.634 ± 0.1
28. VLHDLRQRDPEIPEGVVSQCMLQNNNNLEACCRALSQES  -0.616 ± 0.16
29. VLHDLRQRSPEIPEGVVSQCMLQNNNNLEACCRALSQES  -0.597 ± 0.096
30. VLHDQRQRFPEIPEGVVSQCMLQNNNNLEACCRALSQES  -0.589 ± 0.14
31. VLHDLRQRNPEIPEGVVSQCMLQNNNNLEACCRALSQES  -0.559 ± 0.17
32. VLHDLRQRKPEIPEGVVSQCMLQNNNNLEACCRALSQES  -0.544 ± 0.13
33. VLHDLRQAFPEIPEGVVSQCMLQNNNNLEACCRALSQES  -0.544 ± 0.066
34. VLHDKRQRFPEIPEGVVSQCMLQNNNNLEACCRALSQES  -0.532 ± 0.08
35. VLHDMRQRFPEIPEGVVSQCMLQNNNNLEACCRALSQES  -0.493 ± 0.074
36. VLHDLGQRFPEIPEGVVSQCMLQNNNNLEACCRALSQES  -0.486 ± 0.041
37. VLHDLRQEFPEIPEGVVSQCMLQNNNNLEACCRALSQES  -0.469 ± 0.077
38. VLHDLRQRMPEIPEGVVSQCMLQNNNNLEACCRALSQES  -0.428 ± 0.092
39. VLHDLRGRFPEIPEGVVSQCMLQNNNNLEACCRALSQES  -0.413 ± 0.042
40. VLHDLRQIFPEIPEGVVSQCMLQNNNNLEACCRALSQES  -0.403 ± 0.069
41. VLHDLTQRFPEIPEGVVSQCMLQNNNNLEACCRALSQES  -0.375 ± 0.098
42. VLHDLSQRFPEIPEGVVSQCMLQNNNNLEACCRALSQES  -0.319 ± 0.074
43. VLHDLAQRFPEIPEGVVSQCMLQNNNNLEACCRALSQES  -0.279 ± 0.045
44. VLHDLRNRFPEIPEGVVSQCMLQNNNNLEACCRALSQES  -0.225 ± 0.062
45. VLHDLEQRFPEIPEGVVSQCMLQNNNNLEACCRALSQES  -0.212 ± 0.078
46. VLHDLVQRFPEIPEGVVSQCMLQNNNNLEACCRALSQES  -0.211 ± 0.049
47. VLHDLQQRFPEIPEGVVSQCMLQNNNNLEACCRALSQES  -0.19 ± 0.078
48. VLHDLRQLFPEIPEGVVSQCMLQNNNNLEACCRALSQES  -0.168 ± 0.052
49. VLHDLRVRFPEIPEGVVSQCMLQNNNNLEACCRALSQES  -0.135 ± 0.047
50. VLHDLRTRFPEIPEGVVSQCMLQNNNNLEACCRALSQES  -0.089 ± 0.052
51. VLHDLRDRFPEIPEGVVSQCMLQNNNNLEACCRALSQES  -0.083 ± 0.1
52. VLHDLRIRFPEIPEGVVSQCMLQNNNNLEACCRALSQES  -0.077 ± 0.07
53. VLHDLHQRFPEIPEGVVSQCMLQNNNNLEACCRALSQES  -0.036 ± 0.15
54. VLHDLRKRFPEIPEGVVSQCMLQNNNNLEACCRALSQES  0.003 ± 0.12
55. VLHDLRSRFPEIPEGVVSQCMLQNNNNLEACCRALSQES  0.026 ± 0.061
56. VLHDLRQKFPEIPEGVVSQCMLQNNNNLEACCRALSQES  0.054 ± 0.095
57. VLHDLLQRFPEIPEGVVSQCMLQNNNNLEACCRALSQES  0.056 ± 0.052
58. VLHDLRMRFPEIPEGVVSQCMLQNNNNLEACCRALSQES  0.064 ± 0.064
59. VLHDLRQMFPEIPEGVVSQCMLQNNNNLEACCRALSQES  0.071 ± 0.092
60. VLHDLRERFPEIPEGVVSQCMLQNNNNLEACCRALSQES  0.072 ± 0.046
61. VLHDLRRRFPEIPEGVVSQCMLQNNNNLEACCRALSQES  0.103 ± 0.038
62. VLHDLCQRFPEIPEGVVSQCMLQNNNNLEACCRALSQES  0.107 ± 0.053
63. VLHDLKQRFPEIPEGVVSQCMLQNNNNLEACCRALSQES  0.11 ± 0.067
64. VLHDLMQRFPEIPEGVVSQCMLQNNNNLEACCRALSQES  0.142 ± 0.056
